Data on three molecules can be found in patent publication US12594285B2, “Compositions and methods for protecting against airborne pathogens and irritants” (APPLIED BIOLOGICAL LABORATORIES, INC., priority 2016, dated 2026).

Assay [1] concerns Human Rhinovirus A16 (clinical strain: QCHRV.16). As to the kind of experiment: Apical Rhinovirus replication by quantitative RT-PCR (Example 6). The format is cell-based. Particulars: Example 6, 24 hours pi (D1).
For assay [2] the following is noted: in some studies; cited from earlier work.
The subject of assay [3] is herpes simplex virus (topical application) and hepatitis C infection. Particulars: before versus after contact with the virus; cited from earlier work.

B1: soluble ICAM-1: soluble form of intercellular adhesion molecule 1, sole antiviral agent of formulations R3 and R4 (protein, UniProt P05362 28-480, looked up)
extracellular domain: QTSVSPSKVILPRGGSVLVTCSTSCDQPKLLGIETPLPKKELLLPGNNRKVYELSNVQEDSQPMCYSNCPDGQSTAKTFLTVYWTPERVELAPLPSWQPVGKNLTLRCQVEGGAPRANLTVVLLRGEKELKREPAVGEPAEVTTTVLVRRDHHGANFSCRTELDLRPQGLELFENTSAPYQLQTFVLPATPPQLVSPRVLEVDTQGTVVCSLDGLFPVSEAQVHLALGDQRLNPTVTYGNDSFSAKASVSVTAEDEGTQRLTCAVILGNQSQETLQTVTIYSFPAPNVILTKPEVSEGTEVTVKCEAHPRAKVTLNGVPAQPLGPRAQLLLKATPEDNGRSFSCSATLEVAGQLIHKNQTRELRVLYGPRLDERDCPGNWTWPENSQQTPMCQAWGNPLPELKCLKDGTFPLPIGESVTVTRDLEGTYLCRARSTQGEVTRKVTVNVLSPRYE
modifications: extracellular domain
notes: soluble form of intercellular adhesion molecule 1, sole antiviral agent of formulations R3 and R4
As for B1, the “replication of HRV-A16 virus at D1” value in assay [1] is listed as “inhibited replication”.

B2: bovine lactoferrin: bovine form of the glycoprotein lactoferrin, 69% homology to human lactoferrin (protein, UniProt P24627 20-708, looked up)
Lactotransferrin: APRKNVRWCTISQPEWFKCRRWQWRMKKLGAPSITCVRRAFALECIRAIAEKKADAVTLDGGMVFEAGRDPYKLRPVAAEIYGTKESPQTHYYAVAVVKKGSNFQLDQLQGRKSCHTGLGRSAGWIIPMGILRPYLSWTESLEPLQGAVAKFFSASCVPCIDRQAYPNLCQLCKGEGENQCACSSREPYFGYSGAFKCLQDGAGDVAFVKETTVFENLPEKADRDQYELLCLNNSRAPVDAFKECHLAQVPSHAVVARSVDGKEDLIWKLLSKAQEKFGKNKSRSFQLFGSPPGQRDLLFKDSALGFLRIPSKVDSALYLGSRYLTTLKNLRETAEEVKARYTRVVWCAVGPEEQKKCQQWSQQSGQNVTCATASTTDDCIVLVLKGEADALNLDGGYIYTAGKCGLVPVLAENRKSSKHSSLDCVLRPTEGYLAVAVVKKANEGLTWNSLKDKKSCHTAVDRTAGWNIPMGLIVNQTGSCAFDEFFSQSCAPGADPKSRLCALCAGDDQGLDKCVPNSKEKYYGYTGAFRCLAEDVGDVAFVKNDTVWENTNGESTADWAKNLNREDFRLLCLDGTRKPVTEAQSCHLAVAPNHAVVSRSDRAAHVKQVLLHQQALFGKNGKNCPDKFCLFKSETKNLLFNDNTECLAKLGGRPTYEEYLGTEYVTAIANLKKCSTSPLLEACAFLTR
On to B2, for which, in assay [2], the “concentration required for an antimicrobial effect relative to human lactoferrin” value is 1/10.

B3: lactoferrin: glycoprotein of approximately 703 amino acids and approximately 80 kD in exocrine secretions (protein, UniProt P02788 20-710, looked up)
Lactotransferrin: GRRRSVQWCAVSQPEATKCFQWQRNMRKVRGPPVSCIKRDSPIQCIQAIAENRADAVTLDGGFIYEAGLAPYKLRPVAAEVYGTERQPRTHYYAVAVVKKGGSFQLNELQGLKSCHTGLRRTAGWNVPIGTLRPFLNWTGPPEPIEAAVARFFSASCVPGADKGQFPNLCRLCAGTGENKCAFSSQEPYFSYSGAFKCLRDGAGDVAFIRESTVFEDLSDEAERDEYELLCPDNTRKPVDKFKDCHLARVPSHAVVARSVNGKEDAIWNLLRQAQEKFGKDKSPKFQLFGSPSGQKDLLFKDSAIGFSRVPPRIDSGLYLGSGYFTAIQNLRKSEEEVAARRARVVWCAVGEQELRKCNQWSGLSEGSVTCSSASTTEDCIALVLKGEADAMSLDGGYVYTAGKCGLVPVLAENYKSQQSSDPDPNCVDRPVEGYLAVAVVRRSDTSLTWNSVKGKKSCHTAVDRTAGWNIPMGLLFNQTGSCKFDEYFSQSCAPGSDPRSNLCALCIGDEQGENKCVPNSNERYYGYTGAFRCLAENAGDVAFVKDVTVLQNTDGNNNEAWAKDLKLADFALLCLDGKRKPVTEARSCHLAMAPNHAVVSRMDKVERLKQVLLHQQAKFGRNGSDCPDKFCLFQSETKNLLFNDNTECLARLHGKTTYEKYLGPQYVAGITNLKKCSTSPLLEACEFLRK
Turning to B3, the “protection against viral infection” value in assay [3] was “protective before contact with the virus but not after”.
